Positions count from the first letter of the chain named.
T1: human KLRB1 expressed on CHO-hum-KLRB1 cells (human, UniProt Q12918 1-225)
T1 sequence: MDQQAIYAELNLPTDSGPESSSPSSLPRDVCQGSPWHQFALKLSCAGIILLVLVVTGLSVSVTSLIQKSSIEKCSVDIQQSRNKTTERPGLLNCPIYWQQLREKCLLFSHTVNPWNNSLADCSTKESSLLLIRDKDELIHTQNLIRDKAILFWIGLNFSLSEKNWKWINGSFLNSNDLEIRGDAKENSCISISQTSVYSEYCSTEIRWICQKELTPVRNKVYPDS

T2: human KLRB1 extracellular domain (ECD), amino acids 67-225 of human KLRB1 protein (human, UniProt Q12918 67-225)
T2 construct: Soluble analyte in SPR; also called KLRB1 ECD; CD161 ECD
T2 sequence: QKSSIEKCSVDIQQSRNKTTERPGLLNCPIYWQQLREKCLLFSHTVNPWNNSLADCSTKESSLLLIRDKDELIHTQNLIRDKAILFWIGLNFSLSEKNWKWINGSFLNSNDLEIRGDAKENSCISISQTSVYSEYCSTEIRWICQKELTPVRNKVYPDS

B1: 10A3D6hum2.2 (antibody, human IgG1, V domains shown)
VH: QVQLVQSGAEVKKPGASVKVSCKASGYSFTGYTMNWVRQAPGQNLEWIGLINPNTGGTYYNQKFKDRVTLTVDTSISTAYMELSRLRSDDTAVYYCARLGDNYRGYFDSWGQGTTVTVSS
VL: DIQLTQSPSFLSASVGDRVTITCKASQDVGTAVVWYQQKPGKAPKLLIDWASIRHTGVPSRFSGSGSGTEFTLTISSLQPEDFADYFCQQYSTYLYTFGGGTKLEIK
notes: tested as human IgG1-kappa produced in CHO cells
B2: antibody 13.2 (antibody, human IgG1, kappa, V domains shown)
VH: B1 VH with S28T, N44G, I48M, N54S, L70M, V72R, S109Y
VL: EIVMTQSPATLSVSPGERATLSCRASQDVGTAVVWYQQKPGQAPRLLIDWASIRHTGIPARFSGSGSGTEFTLTISSLQSEDFAVYYCQQYSTYLYTFGGGTKVEIKR
notes: Human IgG1-kappa produced in CHO cells
B3: antibody 12.0 (antibody, human IgG1, kappa, V domains shown)
VH: B1 VH with S28T, N44G, I48M, N54S, L70M, V72R, S109Y
VL: DIQLTQSPSFLSASVGDRVTITCRASQDVGTAVVWYQQKPGKAPKLLIDWASIRHTGVPSRFSGSGSGTEFTLTISSLQPEDFATYYCQQYSTYLYTFGGGTKLEIKR
notes: as for B2
B4: 10A3D6hum1.2 (antibody, human IgG1, V domains shown)
VH: B1 VH with N44G, I48M, L70M, V72R
VL: B1 VL
notes: as for B1
B5: antibody 11.45 (antibody, human IgG1, kappa, V domains shown)
VH: B1 VH with S28T, N44G, I48M, N54S, T55S, L70M, V72R, S109Y
VL: B3 VL with R24K
notes: as for B2
B6: antibody 11.54 (antibody, human IgG1, kappa, V domains shown)
VH: B1 VH with N44G, I48M, N54S, T55S, L70M, V72R, S109Y
VL: B3 VL with R24K, T31S, T56S
notes: as for B2
B7: antibody 11.41.1 (antibody, human IgG1, kappa, V domains shown)
VH: B1 VH with N44G, I48M, N54S, L70M, V72R, S109V
VL: B3 VL with R24K
notes: as for B2
B8: antibody 11.44.1 (antibody, human IgG1, kappa, V domains shown)
VH: B1 VH with N44G, I48M, N54S, T55S, L70M, V72R, S109V
VL: B3 VL with R24K
notes: as for B2
B9: antibody 11.55 (antibody, human IgG1, kappa, V domains shown)
VH: B1 VH with N44G, I48M, N54S, T55S, L70M, V72R, S109Y
VL: B3 VL
notes: as for B2
B10: antibody 11.57 (antibody, human IgG1, kappa, V domains shown)
VH: B1 VH with S28T, N44G, I48M, N54S, T55S, L70M, V72R, S109Y
VL: B3 VL with T31S, T56S
notes: as for B2
B11: antibody 11.29 (antibody, human IgG1, kappa, V domains shown)
VH: B1 VH with N44G, I48M, N54S, T55S, L70M, V72R
VL: B3 VL with R24K, T85D, Y87F
notes: as for B2
B12: antibody 11.12 (antibody, human IgG1, kappa, V domains shown)
VH: B1 VH with N44G, I48M, L70M, V72R, S109Y
VL: B3 VL with R24K, T85D, Y87F
notes: as for B2
B13: antibody 11.27 (antibody, human IgG1, kappa, V domains shown)
VH: B1 VH with N44G, I48M, N54S, L70M, V72R
VL: B3 VL with R24K, T85D, Y87F
notes: as for B2
B14: 10A3D6hum8.2 (antibody, human IgG1, V domains shown)
VH: B1 VH with N54A, S109V
VL: B1 VL
notes: as for B1
B15: antibody 13.4 (antibody, human IgG1, kappa, V domains shown)
VH: B1 VH with S28T, N44G, I48M, N54S, L70M, V72R, S109Y
VL: B2 VL with Y94W, L95P, Y96L
notes: as for B2
B16: antibody 13.5 (antibody, human IgG1, kappa, V domains shown)
VH: B1 VH with S28T, N44G, I48M, N54S, L70M, V72R, S109Y
VL: B2 VL with D28S, Y94W, L95P, Y96L
notes: as for B2
B17: antibody 12.1.3 (antibody, human IgG1, kappa, V domains shown)
VH: B1 VH with S28T, N44G, I48M, N54S, L70M, V72R, S109Y
VL: B3 VL with D28G, V29I, T31S
notes: as for B2
B18: antibody 12.2 (antibody, human IgG1, kappa, V domains shown)
VH: B1 VH with S28T, N44G, I48M, N54S, L70M, V72R, S109Y
VL: B3 VL with D28G, V29I, G30S, T31S, A32Y, V33L, V34A
notes: as for B2
B19: antibody 13.6 (antibody, human IgG1, kappa, V domains shown)
VH: B1 VH with S28T, N44G, I48M, N54S, L70M, V72R, S109Y
VL: B2 VL with D28S, A32N, V33L, V34A, Y94W, L95P, Y96L
notes: as for B2
B20: antibody 12.3 (antibody, human IgG1, kappa, V domains shown)
VH: B1 VH with S28T, N44G, I48M, N54S, L70M, V72R, S109Y
VL: B3 VL with D28G, V29I, G30S, T31S, A32Y, V33L, V34A, D49Y, Y91L, L95P
notes: as for B2

What follows are binders tested against T1, human KLRB1 expressed on CHO-hum-KLRB1 … (assay: cell-based or functional assay).

EC50 for ADCC (target cell lysis, LDH release) [nM]	Binder
0.0048	B1
0.0083	B2
0.0054	B3
0.0058	B4

Target: T1, human KLRB1 expressed on CHO-hum-KLRB1 …
Experiment: cell-based or functional assay
Remark: another data set of the same source

Span (fitted span of the ADCC dose-response curve, % target cell lysis of CHO-K1/human KLRB1 cells with PBMCs, E:T=25:1)	Binder
74.2 % Target Cell Lysis (axis; the table prints no unit)	B1
77.8 % Target Cell Lysis (axis; the table prints no unit)	B2
80.8 % Target Cell Lysis (axis; the table prints no unit)	B3
75 % Target Cell Lysis (axis; the table prints no unit)	B4

These binders were tested against T2, human KLRB1 extracellular domain (ECD), … (assay: SPR (Biacore 8K), antibody fixed on chip, human KLRB1 ECD as analyte).
Experimental: (§1) Various humanized antibodies derived from humanized variants of antibody 10A3D6 with human IgG1-kappa were produced in CHO cells and then assayed for binding against human KLRB1 extracellular domain (ECD) via surface plasma resonance (SPR). Human KLRB1 extracellular domain was amino acids 67-225 from human KLRB1 protein (SEQ ID NO: 1). […] Antibody was fixed to the chip and analyte of human KLRB1 extracellular domain (ECD) was flowed over the surface at 30 ul/min, with contact time 120 seconds and dissociation time 360 seconds. The results are shown from two separate experiments in Tables 20 and 21.

Kd [nM]	koff [s⁻¹]	kon [M⁻¹ s⁻¹]	Binder
1.26	0.000227	181000	B5
0.263	8.18e-05	311000	B1
2.24	0.000315	141000	B6
0.414	0.000167	403000	B7
1.09	0.000234	215000	B8
1.23	0.00022	180000	B9
2.08	0.000308	148000	B10
0.743	0.000207	278000	B11
0.275	0.00012	434000	B12
0.314	0.000123	391000	B13
0.512	0.000171	335000	B14
0.279	0.000135	485000	B4

Each binder was assayed against T2, human KLRB1 extracellular domain (ECD), … (assay: SPR (Biacore 8K), antibody fixed on chip, human KLRB1 ECD as analyte; second experiment).
Experimental: as §1

Kd [nM]	koff [s⁻¹]	kon [M⁻¹ s⁻¹]	Binder
14.6	0.00217	149000	B15
20.3	0.00177	87300	B16
0.444	0.000133	300000	B2
2.52	0.000308	122000	B10
1.75	0.000248	141000	B17
1.54	0.000236	153000	B18
44.8	0.00269	60000	B19
68.8	0.00135	19700	B20
0.597	0.000145	243000	B3
0.344	0.000107	310000	B4

From patent publication US20260258139A1 (BRIGHAM AND WOMEN S HOSPITAL, published 2026)
